Ends that are not written are not given here.
Molecular target: T1, CD11c on the surface of mouse bone marrow-derived dendritic cells (BMDCs) (mouse, UniProt Q9QXH4 20-1169)
T1 sequence (looked up): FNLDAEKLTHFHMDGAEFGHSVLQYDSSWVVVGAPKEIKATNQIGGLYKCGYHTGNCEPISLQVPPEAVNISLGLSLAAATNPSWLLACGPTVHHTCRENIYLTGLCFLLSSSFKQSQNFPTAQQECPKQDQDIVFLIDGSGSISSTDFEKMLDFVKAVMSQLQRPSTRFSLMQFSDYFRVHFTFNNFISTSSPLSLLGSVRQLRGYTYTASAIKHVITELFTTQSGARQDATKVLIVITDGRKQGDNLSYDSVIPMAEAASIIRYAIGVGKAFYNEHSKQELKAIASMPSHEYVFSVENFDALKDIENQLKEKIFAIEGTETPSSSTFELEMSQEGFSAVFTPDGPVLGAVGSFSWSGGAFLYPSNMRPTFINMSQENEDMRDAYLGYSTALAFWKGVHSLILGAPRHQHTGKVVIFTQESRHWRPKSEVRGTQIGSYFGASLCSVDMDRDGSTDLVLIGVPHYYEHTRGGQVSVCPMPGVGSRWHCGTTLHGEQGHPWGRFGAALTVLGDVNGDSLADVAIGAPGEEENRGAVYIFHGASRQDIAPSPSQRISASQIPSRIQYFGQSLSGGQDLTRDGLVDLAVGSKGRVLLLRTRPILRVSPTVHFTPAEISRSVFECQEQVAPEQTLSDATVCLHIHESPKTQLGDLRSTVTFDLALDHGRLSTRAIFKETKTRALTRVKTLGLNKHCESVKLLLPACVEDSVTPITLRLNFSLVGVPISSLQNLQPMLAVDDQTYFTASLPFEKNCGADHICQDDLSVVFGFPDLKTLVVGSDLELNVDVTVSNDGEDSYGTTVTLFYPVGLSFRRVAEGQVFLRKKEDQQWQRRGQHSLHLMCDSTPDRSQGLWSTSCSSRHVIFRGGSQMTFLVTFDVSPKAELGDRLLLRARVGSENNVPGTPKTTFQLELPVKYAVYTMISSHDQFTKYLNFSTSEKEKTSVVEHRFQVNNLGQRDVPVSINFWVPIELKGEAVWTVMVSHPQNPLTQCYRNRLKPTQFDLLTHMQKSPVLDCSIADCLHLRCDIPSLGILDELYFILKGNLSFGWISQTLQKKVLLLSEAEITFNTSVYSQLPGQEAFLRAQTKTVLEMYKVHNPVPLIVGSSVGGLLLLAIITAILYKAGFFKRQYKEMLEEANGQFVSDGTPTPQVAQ
Test: cell-based or functional assay

B1: P-D2-PEG5-PS (PEG-bl-PPS polymersome displaying the P-D2-PEG5-Lys-PA targeting peptide construct) (peptide)
peptide: GGVTLTYQFAAGPRDK
modifications: not fully specified (N-terminus); also: displayed on PEG-bl-PPS polymersome
cellular uptake by BMDCs (flow cytometry, nile red-loaded PS, 1 h incubation): > 3 fold
